# Results as given in publication PMC9672333 (2022).
# B1: Casirivimab (antibody, V domains shown)
# VH: QVQLVESGGGLVKPGGSLRLSCAASGFTFSDYYMSWIRQAPGKGLEWVSYITYSGSTIYYADSVKGRFTISRDNAKSSLYLQMNSLRAEDTAVYYCARDRGTTMVPFDYWGQGTLVTVSS
# VL: DIQMTQSPSSLSASVGDRVTITCQASQDITNYLNWYQQKPGKAPKLLIYAASNLETGVPSRFSGSGSGTDFTFTISGLQPEDIATYYCQQYDNLPLTFGGGTKVEIK
# B2: Imdevimab (antibody, V domains shown)
# VH: QVQLVESGGGVVQPGRSLRLSCAASGFTFSNYAMYWVRQAPGKGLEWVAVISYDGSNKYYADSVKGRFTISRDNSKNTLYLQMNSLRTEDTAVYYCASGSDYGDYLLVYWGQGTLVTVSS
# VL: QSALTQPASVSGSPGQSITISCTGTSSDVGGYNYVSWYQQHPGKAPKLMIYDVSKRPSGVSNRFSGSKSGNTASLTISGLQSEDEADYYCNSLTSISTWVFGGGTKLTVL
# B3: Tixagevimab Biosimilar (antibody, V domains shown)
# VH: QMQLVQSGPEVKKPGTSVKVSCKASGFTFMSSAVQWVRQARGQRLEWIGWIVIGSGNTNYAQKFQERVTITRDMSTSTAYMELSSLRSEDTAVYYCAAPYCSSISCNDGFDIWGQGTMVTVSS
# VL: not shown
# Target: Wild type spike RBD (UniProt P0DTC2) (SARS-CoV-2, UniProt P0DTC2 319-541)
row,Binder,Kd [pM]
1,B1,800
2,B2,65000
3,B3,600
